As usually defined, the stoichiometry N is the number of molecules, sites or subunits per partner or assembly. One may read the Kd as the free concentration of one partner at which half of the binding sites on the other are occupied at equilibrium, for simple one-to-one binding. Low readings indicate higher affinity, high ones lower affinity.

3 molecules from PMC8517388 can be followed below.

Read-outs that look alike come from different tables or passages of the source.

The target in series [1] is TROP-2 ectodomain expressed in HEK-293T cells (TROP-2-ECD-293T) (human) (UniProt P09758). Description: crystal structure.
Series [2] has the same target. Description: crystal structure. The source holds these as a separate data set.
The target of series [3] is TROP-2 ectodomain expressed in insect cells (TROP-2-ECD-insect) (human) (UniProt P09758). Description: crystal structure.
For series [4] the target is unchanged. Description: ITC. In general terms: In ITC the heat of successive injections is recorded.
The target is the same in series [5]. Description: crystal structure. The source holds these as a separate data set.
The nature of series [6]: BS3 cross-linking, SDS-PAGE. The note with it: glycan changed form; control: TROP-2-ECD from HEK-293T cells.

Take “TROP-2 ectodomain expressed in HEK-293T cells (TROP-2-ECD-293T) (from UniProt P09758 27-274) (domain or fragment)”: the figures for the stoichiometry N in series [1] and in series [2] were 2 and 4, respectively.
In turn, “TROP-2 ectodomain expressed in insect cells (TROP-2-ECD-insect) (from UniProt P09758 27-274) (domain or fragment)” had a stoichiometry N in series [3] of 2. Also, in series [4], the Kd was 402 µM and the dH was 9.14 kcal/mol. This molecule also gave a stoichiometry N in series [5] of 4.

B1: TROP-2 (trophoblast cell surface antigen 2) ectodomain, TROP-2-ECD: expression in insect cells (protein)
parent chain: MARGPGLAPPPLRLPLLLLVLAAVTGHTAAQDNCTCPTNKMTVCSPDGPGGRCQCRALGSGMAVDCSTLTSKCLLLKARMSAPKNARTLVRPSEHALVDNDGLYDPDCDPEGRFKARQCNQTSVCWCVNSVGVRRTDKGDLSLRCDELVRTHHILIDLRHRPTAGAFNHSDLDAELRRLFRERYRLHPKFVAAVHYEQPTIQIELRQNTSQKAAGDVDIGDAAYYFERDIKGESLFQGRGGLDLRVRGEPLQVERTLIYYLDEIPPKFSMKRLTAGLIAVIVVVVVALVAGMAVLVITNRRKSGKYKKVEIKELGELRKEPSL
Regarding B1, the oligomerisation result in series [6] was “no change”.
